Starred links: 1 amine or outer side, 2 acyl side, 3 side chain; linkers in the order of their positions; H or OH if unused. Non-standard residues stand in square brackets, D forms with d. No end group written: not given here. γGlu = O=C(O)[C@H](CCC(=O)[*:2])N[*:1]; βAsp = O=C(O)[C@H](CC(=O)[*:2])N[*:1]; Abu = CC[C@H](N)C(=O)O
Target: domestic cat Calcium Sensing Receptor (cCaSR) (Felis catus)

Row | EC50 of agonist activity, luminescence (natClytin) in HEK T-Rex/natClytin cells inducibly expressing cCaSR, calcium-free buffer; activity grade ++ | EC50 of agonist activity, luminescence (natClytin) in HEK T-Rex/natClytin cells inducibly expressing cCaSR, calcium-free buffer; activity grade + | Substance
1 | 6.39 mM |  | Glutathione (peptide)
2 |  | > 10 mM | Poly-L-lysine (peptide)
3 | 2.11 mM |  | S-(2-Hydroxyethyl)glutathione (peptide)
4 |  | > 10 mM | S-Lactoylglutathione (peptide)
5 | 4.42 mM |  | S-Methylglutathione (peptide)
6 |  | > 10 mM | [βAsp]-Ala
7 |  | > 10 mM | [βAsp]-Gly
8 |  | 3.15 mM | [βAsp]-Leu
9 |  | > 10 mM | [βAsp]-Phe
10 |  | > 10 mM | [γGlu]-Ala
11 |  | > 10 mM | [γGlu]-Cys
12 |  | > 10 mM | [γGlu]-Gln
13 | 2.07 mM |  | [γGlu]-Glu
14 |  | > 10 mM | [γGlu]-Glu-Gln
15 | 2.35 mM |  | [γGlu]-Glu-Glu
16 |  | > 10 mM | [γGlu]-Gly
17 |  | > 10 mM | [γGlu]-Leu
18 |  | > 10 mM | [γGlu]-Met
19 |  | > 10 mM | [γGlu]-Trp
20 | 3.88 mM |  | [γGlu]-Tyr
21 | 4.52 mM |  | [γGlu]-Val
22 | 4.22 mM |  | [γGlu]-Val-Gly
23 | 2.65 mM |  | [γGlu]-[Abu]-Gly
24 | 4.2 mM |  | γ-D-Glu-Trp (peptide)
25 |  | > 10 mM | γ-Glu-Abu (peptide)
26 | 2.32 mM |  | γ-Glu-Phe (peptide)

— PMC8131363 (Scientific Reports, 2021)
